Blank lines part the entries; values can stand above or below the binder they belong to.
Biological target: KLC2^TPR (tetratricopeptide repeat domain of kinesin light chain 2), wild type (UniProt O88448 217-426)
Assay: fluorescence polarisation

Kd: 24 µM
B1: SKIP^WD peptide (ten amino acid long peptide centered on the WD motif of SKIP) (peptide)
chain: TNLEWDDSAI

Kd: > 110 µM
B2: SKIP^WE peptide (equivalent peptide centered on the WE motif of SKIP) (peptide)
chain: PSTDWEDGDL
